These are literature values, as cited in article PMC10347550, “Cyclic Ruthenium-Peptide Conjugates as Integrin-Targeting Phototherapeutic Prodrugs for the Treatment of Brain Tumors” (Journal of the American Chemical Society, 2023).

The series has as its target fibrinogen (Homo sapiens) (UniProt P02671).

pKd: −log10 of the molar value.

Sequence of fibrinogen (Homo sapiens) (P02671 36-866, chain 1 of 3): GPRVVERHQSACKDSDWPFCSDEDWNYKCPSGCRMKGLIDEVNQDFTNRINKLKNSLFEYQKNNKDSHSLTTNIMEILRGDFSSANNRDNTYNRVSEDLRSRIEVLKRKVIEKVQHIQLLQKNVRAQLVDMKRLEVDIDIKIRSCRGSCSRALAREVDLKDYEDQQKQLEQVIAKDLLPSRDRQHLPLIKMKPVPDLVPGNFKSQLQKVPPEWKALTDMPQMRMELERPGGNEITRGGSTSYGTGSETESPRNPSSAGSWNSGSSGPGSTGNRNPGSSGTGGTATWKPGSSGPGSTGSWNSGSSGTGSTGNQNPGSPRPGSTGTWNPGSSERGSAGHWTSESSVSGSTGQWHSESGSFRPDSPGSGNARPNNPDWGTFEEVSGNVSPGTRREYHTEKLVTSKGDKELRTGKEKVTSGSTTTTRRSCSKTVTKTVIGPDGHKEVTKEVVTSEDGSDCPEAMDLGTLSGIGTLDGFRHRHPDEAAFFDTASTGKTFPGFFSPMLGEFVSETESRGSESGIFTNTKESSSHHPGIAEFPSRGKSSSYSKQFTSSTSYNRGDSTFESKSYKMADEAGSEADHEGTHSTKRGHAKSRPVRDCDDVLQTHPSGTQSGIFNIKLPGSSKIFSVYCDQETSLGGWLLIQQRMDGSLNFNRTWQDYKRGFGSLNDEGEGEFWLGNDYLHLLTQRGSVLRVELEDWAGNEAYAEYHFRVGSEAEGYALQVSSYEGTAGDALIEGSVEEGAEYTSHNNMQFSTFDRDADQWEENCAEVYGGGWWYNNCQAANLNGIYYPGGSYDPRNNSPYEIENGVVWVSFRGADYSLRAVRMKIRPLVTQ
Sequence of fibrinogen (Homo sapiens) (P02675 45-491, chain 2 of 3, further chain): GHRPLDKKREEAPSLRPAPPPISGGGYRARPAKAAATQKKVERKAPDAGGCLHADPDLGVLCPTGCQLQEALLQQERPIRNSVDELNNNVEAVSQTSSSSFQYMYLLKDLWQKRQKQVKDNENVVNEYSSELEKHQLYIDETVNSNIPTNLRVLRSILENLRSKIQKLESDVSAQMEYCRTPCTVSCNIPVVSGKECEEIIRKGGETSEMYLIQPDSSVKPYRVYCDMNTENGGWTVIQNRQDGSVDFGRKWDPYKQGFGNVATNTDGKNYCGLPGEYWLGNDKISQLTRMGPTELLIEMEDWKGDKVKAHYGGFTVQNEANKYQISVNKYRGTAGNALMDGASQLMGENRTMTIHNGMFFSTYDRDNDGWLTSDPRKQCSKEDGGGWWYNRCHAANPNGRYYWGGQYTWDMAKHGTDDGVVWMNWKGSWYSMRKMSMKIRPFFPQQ
Sequence of fibrinogen (Homo sapiens) (P02679 27-453, chain 3 of 3, further chain): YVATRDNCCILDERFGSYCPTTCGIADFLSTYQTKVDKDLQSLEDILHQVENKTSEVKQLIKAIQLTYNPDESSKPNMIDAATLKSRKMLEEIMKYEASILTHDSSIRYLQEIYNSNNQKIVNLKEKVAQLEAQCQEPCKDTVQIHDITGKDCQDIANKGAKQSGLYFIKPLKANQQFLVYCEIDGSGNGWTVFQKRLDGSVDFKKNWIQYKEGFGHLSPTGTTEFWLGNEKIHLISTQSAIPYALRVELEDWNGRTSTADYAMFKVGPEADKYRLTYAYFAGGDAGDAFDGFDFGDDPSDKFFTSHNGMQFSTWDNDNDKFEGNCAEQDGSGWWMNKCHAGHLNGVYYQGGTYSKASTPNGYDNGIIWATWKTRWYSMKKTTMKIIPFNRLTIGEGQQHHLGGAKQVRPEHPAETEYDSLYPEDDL

As usually defined, the pKd is the negative decadic logarithm of the Kd, by convention in mol/L. Turning to integrin αIIbβ3 (from UniProt P08514), the negative-log Kd (pKd) is 7.52.
